# From US20260250398A1 (ANTLERA THERAPEUTICS, published 2026)
# T1: LRP6 (low-density lipoprotein receptor-related protein 6) (UniProt O75581 20-1370, limits assumed)
# T1 sequence (looked up): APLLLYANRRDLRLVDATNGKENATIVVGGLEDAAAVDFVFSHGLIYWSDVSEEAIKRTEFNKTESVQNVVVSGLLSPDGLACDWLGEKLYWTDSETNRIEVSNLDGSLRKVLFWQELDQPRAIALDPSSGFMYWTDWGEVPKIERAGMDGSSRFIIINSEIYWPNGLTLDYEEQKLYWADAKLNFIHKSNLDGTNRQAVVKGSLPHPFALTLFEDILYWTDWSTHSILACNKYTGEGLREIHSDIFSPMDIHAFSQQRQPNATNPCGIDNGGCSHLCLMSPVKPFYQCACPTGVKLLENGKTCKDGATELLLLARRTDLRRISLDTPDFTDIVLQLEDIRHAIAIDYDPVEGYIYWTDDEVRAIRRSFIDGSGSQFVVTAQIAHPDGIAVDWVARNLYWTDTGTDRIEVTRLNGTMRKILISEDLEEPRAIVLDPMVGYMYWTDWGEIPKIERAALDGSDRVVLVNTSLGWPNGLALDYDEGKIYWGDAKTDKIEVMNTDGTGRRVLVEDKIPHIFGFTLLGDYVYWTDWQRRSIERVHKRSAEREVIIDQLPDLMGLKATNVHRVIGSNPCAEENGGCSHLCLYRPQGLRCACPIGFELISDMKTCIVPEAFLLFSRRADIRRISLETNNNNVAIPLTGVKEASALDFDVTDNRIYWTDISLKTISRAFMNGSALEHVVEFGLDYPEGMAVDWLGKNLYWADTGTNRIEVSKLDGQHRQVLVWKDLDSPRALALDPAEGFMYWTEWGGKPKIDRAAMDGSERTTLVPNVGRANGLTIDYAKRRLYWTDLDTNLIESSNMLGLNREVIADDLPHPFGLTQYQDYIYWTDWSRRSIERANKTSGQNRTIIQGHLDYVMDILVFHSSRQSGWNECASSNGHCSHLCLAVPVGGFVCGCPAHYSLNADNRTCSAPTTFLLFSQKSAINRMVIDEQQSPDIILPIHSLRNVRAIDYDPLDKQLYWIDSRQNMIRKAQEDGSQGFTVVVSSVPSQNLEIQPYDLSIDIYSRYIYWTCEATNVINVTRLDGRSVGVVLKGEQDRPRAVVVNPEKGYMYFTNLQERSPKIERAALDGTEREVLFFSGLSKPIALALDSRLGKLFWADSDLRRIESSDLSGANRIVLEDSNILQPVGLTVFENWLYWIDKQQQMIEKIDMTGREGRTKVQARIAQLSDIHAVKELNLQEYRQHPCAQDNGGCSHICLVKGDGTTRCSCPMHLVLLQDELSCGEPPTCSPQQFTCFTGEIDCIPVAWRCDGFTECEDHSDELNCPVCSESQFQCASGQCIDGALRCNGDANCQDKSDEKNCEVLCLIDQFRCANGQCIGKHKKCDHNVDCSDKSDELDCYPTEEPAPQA
# B1: CM0299 (FZD IgG-LRP Diabody; paratopes 5016; 2539) (bispecific antibody)
# heavy: not shown
# light: DIQMTQSPSSLSASVGDRVTITCRASQSVSSAVAWYQQKPGKAPKLLIYSASSLYSGVPSRFSGSRSGTDFTLTISSLQPEDFATYYCQQGVYLFTFGQGTKVEIKRTVAAPSVFIFPPSDEQLKSGTASVVCLLNNFYPREAKVQWKVDNALQSGNSQESVTEQDSKDSTYSLSSTLTLSKADYEKHKVYACEVTHQGLSSPVTKSFNRGEC
# B2: CM0300 (FZD IgG-LRP scFv; paratopes 5016; 2539) (bispecific antibody)
# heavy: not shown
# light: DIQMTQSPSSLSASVGDRVTITCRASQSVSSAVAWYQQKPGKAPKLLIYSASSLYSGVPSRFSGSRSGTDFTLTISSLQPEDFATYYCQQGVYLFTFGQGTKVEIKRTVAAPSVFIFPPSDEQLKSGTASVVCLLNNFYPREAKVQWKVDNALQSGNSQESVTEQDSKDSTYSLSSTLTLSKADYEKHKVYACEVTHQGLSSPVTKSFNRGEC
# B3: CM0301 (FZD IgG-LRP scFv; paratopes 5016; 2542) (bispecific antibody)
# heavy: not shown
# light: DIQMTQSPSSLSASVGDRVTITCRASQSVSSAVAWYQQKPGKAPKLLIYSASSLYSGVPSRFSGSRSGTDFTLTISSLQPEDFATYYCQQGVYLFTFGQGTKVEIKRTVAAPSVFIFPPSDEQLKSGTASVVCLLNNFYPREAKVQWKVDNALQSGNSQESVTEQDSKDSTYSLSSTLTLSKADYEKHKVYACEVTHQGLSSPVTKSFNRGEC
# B4: Fab-Dia (paratopes 5016; 2540/2542) (bispecific antibody)
# heavy: EVQLVESGGGLVQPGGSLRLSCAASGFNIHSSSIHWVRQAPGKGLEWVAATYSSFGSITYADSVKGRFTISADTSKNTAYLQMNSLRAEDTAVYYCARYHHPFGYALDYWGQGTLVTVSSASTKGPSVFPLAPSSKSTSGGTAALGCLVKDYFPEPVTVSWNSGALTSGVHTFPAVLQSSGLYSLSSVVTVPSSSLGTQTYICNVNHKPSNTKVDKKVEPKSCDKTHTGGSGGEVQLVESGGGLVQPGGSLRLSCAASGFTISYSSIHWVRQAPGKGLEWVASISPYYGYTYYADSVKGRFTISADTSKNTAYLQMNSLRAEDTAVYYCARSSYFPWFSAMDYWGQGTLVTVSSGGGGSDIQMTQSPSSLSASVGDRVTITCRASQSVSSAVAWYQQKPGKAPKLLIYSASSLYSGVPSRFSGSRSGTDFTLTISSLQPEDFATYYCQQYYWPITFGQGTKVEIK
# light: DIQMTQSPSSLSASVGDRVTITCRASQSVSSAVAWYQQKPGKAPKLLIYSASSLYSGVPSRFSGSRSGTDFTLTISSLQPEDFATYYCQQGVYLFTFGQGTKVEIKRTVAAPSVFIFPPSDEQLKSGTASVVCLLNNFYPREAKVQWKVDNALQSGNSQESVTEQDSKDSTYSLSSTLTLSKADYEKHKVYACEVTHQGLSSPVTKSFNRGECGGGGSEVQLVESGGGLVQPGGSLRLSCAASGFTISSYYIHWVRQAPGKGLEWVASIYSSYGYTSYADSVKGRFTISADTSKNTAYLQMNSLRAEDTAVYYCARTVRGSKKPYFSGWAMDYWGQGTLVTVSSGGGGSDIQMTQSPSSLSASVGDRVTITCRASQSVSSAVAWYQQKPGKAPKLLIYSASSLYSGVPSRFSGSRSGTDFTLTISSLQPEDFATYYCQQYYFLITFGQGTKVEIK
# B5: CH3 (Dia-CH3-Dia; paratopes 5019; 2539) (bispecific antibody)
# chain: MNLLLILTFVAAAVAEFEVQLVESGGGLVQPGGSLRLSCAASGFNIGSSSIHWVRQAPGKGLEWVASIYSAFASTSYADSVKGRFTISADTSKNTAYLQMNSLRAEDTAVYYCARYHFPFGFALDYWGQGTLVTVSSGGGGSDIQMTQSPSSLSASVGDRVTITCRASQSVSSAVAWYQQKPGKAPKLLIYSASSLYSGVPSRFSGSRSGTDFTLTISSLQPEDFATYYCQQGVYLFTFGQGTKVEIKDKTHTKVEPKTSDKTHTCPPCPGQPREPQVYTLPPSREEMTKNQVSLTCLVKGFYPSDIAVEWESNGQPENNYKTTPPVLDSDGSFFLYSKLTVDKSRWQQGNVFSCSVMHEALHNHYTQKSLSLSPGKGTTAASGSSGGSSSGAGRTEVQLVESGGGLVQPGGSLRLSCAASGFNISYSSIHWVRQAPGKGLEWVAYISSYYGYTYYADSVKGRFTISADTSKNTAYLQMNSLRAEDTAVYYCARAHYFPWAGAMDYWGQGTLVTVSSGGGGSDIQMTQSPSSLSASVGDRVTITCRASQSVSSAVAWYQQKPGKAPKLLIYSASSLYSGVPSRFSGSRSGTDFTLTISSLQPEDFATYYCQQYSWGPFTFGQGTKVEIK
# What was measured:
# [1] = biological target: T1, LRP6 (low-density lipoprotein …); test: cell-based or functional assay
# [2] = biological target: T1, LRP6 (low-density lipoprotein …); test: cell-based or functional assay; remark: listed apart in the source
Binder,TOPFLASH % Wnt Maxima [1] [% Wnt Maxima],TOPFLASH Maximal Signal (% Wnt3a maxima) [2] [% Wnt3a maxima]
B1,14,–
B2,5,–
B3,1,–
B4,–,42
B5,–,22
